We go through five molecules from patent publication US20130225488A1 (CADILA HEALTHCARE, published 2013).

Where no end group is shown, it is not given here. [ ]: non-standard residue; d: D form.

For one experiment, the target named is Human glucagon receptor (human, UniProt P47871 26-477). The experiment can be described thus: cell-based or functional assay.
Another experiment has as its target Human GLP-1 receptor (human, UniProt P43220 24-463). Description: cell-based or functional assay.

Human GLP-1 receptor, sequence (P43220 24-463): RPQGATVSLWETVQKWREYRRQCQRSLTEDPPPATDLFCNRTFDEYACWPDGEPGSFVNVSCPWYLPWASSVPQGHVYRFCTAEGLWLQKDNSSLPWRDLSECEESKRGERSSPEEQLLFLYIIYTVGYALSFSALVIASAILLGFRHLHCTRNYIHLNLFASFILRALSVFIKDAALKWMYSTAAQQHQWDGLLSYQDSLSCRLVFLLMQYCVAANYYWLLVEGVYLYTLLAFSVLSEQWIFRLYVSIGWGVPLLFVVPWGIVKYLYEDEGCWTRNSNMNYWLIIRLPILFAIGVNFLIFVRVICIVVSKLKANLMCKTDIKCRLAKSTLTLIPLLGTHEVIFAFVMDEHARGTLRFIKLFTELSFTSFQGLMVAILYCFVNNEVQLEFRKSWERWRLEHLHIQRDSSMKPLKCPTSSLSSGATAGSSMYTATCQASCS

B1: Seq. ID. No. 33: H-(ACP)-QGT-(α-Me-2F-Phe)-TSD-Bip(OMe)-Bip(2Me) (peptide)
peptide: HXQGTXTSDXX
modifications: ACP at 2; α-Me-2F-Phe at 6; Bip(OMe) at 10; Bip(2Me) at 11
B1: in the experiment with Human glucagon receptor, the “cAMP production with saturated glucagon peptide; test compound 1 nM” value (from here on “cAMP production … test compound 1 nM”) was found to be 0 pmol/ml/µg prt, the “cAMP production with saturated glucagon peptide; test compound 10 nM” value (shortened to “cAMP production … test compound 10 nM”) stood at 0 pmol/ml/µg prt, the “cAMP production with saturated glucagon peptide; test compound 100 nM” value (“cAMP production … test compound 100 nM” for short) worked out at 0 pmol/ml/µg prt and the “cAMP production with saturated glucagon peptide; test compound 10 µM” value (“cAMP production … test compound 10 µM” for short) was found to be 0 pmol/ml/µg prt. Also, in the experiment with Human glucagon receptor, the “cAMP production with saturated glucagon peptide; test compound '1 nM'” value (“cAMP production … test compound '1 nM'” below) came to 0 pmol/ml/µg prt. In the experiment with Human GLP-1 receptor, the “cAMP release, % activity with respect to control; test compound 1 nM” value (“cAMP release, % activity … test compound 1 nM” below) amounted to 99%; the “cAMP release, % activity with respect to control; test compound 10 nM” value (shortened to “cAMP release, % activity … test compound 10 nM”) was 99%; the “cAMP release, % activity with respect to control; test compound 100 nM” value (from here on “cAMP release, % activity … test compound 100 nM”) is 99%; the “cAMP release, % activity with respect to control; test compound 1 µM” value (from here on “cAMP release, % activity … test compound 1 µM”) came out at 99%. In addition, the “cAMP release, % activity with respect to control; test compound 10 µM” value (“cAMP release, % activity … test compound 10 µM” below) with Human GLP-1 receptor is 99%.

B2: Seq. ID. No. 34: H-(ACP)-QGT-(α-Me-2F-Phe)-TSD-Bip(OMe)-Bip(Pyr) (peptide)
peptide: HXQGTXTSDXX
modifications: not fully specified; ACP at 2; α-Me-2F-Phe at 6; Bip(OMe) at 10; Bip(Pyr) at 11
Turning to B2, in the experiment with Human glucagon receptor, the “cAMP production … test compound 1 nM” value was 0 pmol/ml/µg prt, the “cAMP production … test compound 10 nM” value worked out at 0 pmol/ml/µg prt, the “cAMP production … test compound 100 nM” value worked out at 0 pmol/ml/µg prt and the “cAMP production … test compound 10 µM” value worked out at 0 pmol/ml/µg prt. In addition, the “cAMP production … test compound '1 nM'” value in the experiment with Human glucagon receptor was found to be 0 pmol/ml/µg prt. Moreover, in the experiment with Human GLP-1 receptor, the “cAMP release, % activity … test compound 1 nM” value came to 99%; the “cAMP release, % activity … test compound 10 nM” value turned out to be 99%; the “cAMP release, % activity … test compound 100 nM” value worked out at 99%; the “cAMP release, % activity … test compound 1 µM” value amounted to 99%. For the same molecule, the “cAMP release, % activity … test compound 10 µM” value in the experiment with Human GLP-1 receptor was 99%.

B3: Seq. ID. No. 32: H-Aib-QGT-(α-Me-2F-Phe)-TSD-Bip(OMe)-Bip(2CF3) (peptide)
peptide: HXQGTXTSDXX
modifications: Aib at 2; α-Me-2F-Phe at 6; Bip(OMe) at 10; Bip(2CF3) at 11; C-terminal amide (CONH2)
Take B3: in the experiment with Human glucagon receptor, the “cAMP production … test compound 1 nM” value was found to be 4 pmol/ml/µg prt, the “cAMP production … test compound 10 nM” value was 2 pmol/ml/µg prt, the “cAMP production … test compound 100 nM” value was found to be 0 pmol/ml/µg prt and the “cAMP production … test compound 10 µM” value worked out at 0 pmol/ml/µg prt. In addition, the “cAMP production … test compound '1 nM'” value in the experiment with Human glucagon receptor was found to be 0 pmol/ml/µg prt. In the experiment with Human GLP-1 receptor, the “cAMP release, % activity … test compound 1 nM” value stood at 99%; the “cAMP release, % activity … test compound 10 nM” value stood at 99%; the “cAMP release, % activity … test compound 100 nM” value worked out at 99%; the “cAMP release, % activity … test compound 1 µM” value turned out to be 99%. Moreover, the “cAMP release, % activity … test compound 10 µM” value with Human GLP-1 receptor worked out at 99%.

B4: Seq. ID. No. 5: HSQGTFTSD-Bip(OMe)-Bip(2Me) (peptide)
peptide: HSQGTFTSD[Bip(OMe)][Bip(2Me)]-NH2
Turning to B4, in the experiment with Human glucagon receptor, the “cAMP production … test compound 1 nM” value was 20 pmol/ml/µg prt, the “cAMP production … test compound 10 nM” value was determined as 18 pmol/ml/µg prt, the “cAMP production … test compound 100 nM” value was 16 pmol/ml/µg prt and the “cAMP production … test compound 10 µM” value is 12 pmol/ml/µg prt. Also, the “cAMP production … test compound '1 nM'” value in the experiment with Human glucagon receptor worked out at 14 pmol/ml/µg prt. Also, in the experiment with Human GLP-1 receptor, the “cAMP release, % activity … test compound 1 nM” value amounted to 38%; the “cAMP release, % activity … test compound 10 nM” value amounted to 78%; the “cAMP release, % activity … test compound 100 nM” value worked out at 86%; the “cAMP release, % activity … test compound 1 µM” value is 95%. Also, in the experiment with Human GLP-1 receptor, the “cAMP release, % activity … test compound 10 µM” value stood at 98%.

B5: Seq. ID. No. 31: H-Aib-QGT-(α-Me-2F-Phe)-TSD-Bip(OMe)-Bip(2F) (peptide)
peptide: HXQGTXTSDXX
modifications: Aib at 2; α-Me-2F-Phe at 6; Bip(OMe) at 10; Bip(2F) at 11
Consider B5, for which, in the experiment with Human glucagon receptor, the “cAMP production … test compound 1 nM” value was found to be 6 pmol/ml/µg prt, the “cAMP production … test compound 10 nM” value worked out at 5 pmol/ml/µg prt, the “cAMP production … test compound 100 nM” value was 2 pmol/ml/µg prt and the “cAMP production … test compound 10 µM” value worked out at 0 pmol/ml/µg prt. The “cAMP production … test compound '1 nM'” value in the experiment with Human glucagon receptor was determined as 0 pmol/ml/µg prt. In the experiment with Human GLP-1 receptor, the “cAMP release, % activity … test compound 1 nM” value was determined as 93%; the “cAMP release, % activity … test compound 10 nM” value was 99%; the “cAMP release, % activity … test compound 100 nM” value is 99%; the “cAMP release, % activity … test compound 1 µM” value worked out at 99%. Moreover, the “cAMP release, % activity … test compound 10 µM” value with Human GLP-1 receptor is 99%.
